From doi:10.1101/2022.11.07.515236 (bioRxiv, 2022) come the findings set out here.

Assay [1] concerns the target T1, recombinant human ACTRIIA-Fc (human, UniProt P27037). Description: BLI. Background: Biolayer interferometry detects binding as a change in optical thickness at a sensor tip.
The target in assay [2] is T2, Fc chimera of recombinant human type II BMP receptor BMPRII (human, UniProt Q13873).
T2 sequence: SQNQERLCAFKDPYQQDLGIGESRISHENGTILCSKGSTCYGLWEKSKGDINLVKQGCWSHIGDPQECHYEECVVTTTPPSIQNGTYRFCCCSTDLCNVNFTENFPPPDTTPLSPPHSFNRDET
Put plainly: BLI.

Assay [3] deals with T1, recombinant human ACTRIIA-Fc. Description: SPR.
Assay [4] has as its target T2, Fc chimera of recombinant human type II …. Put plainly: SPR.

T1 sequence (P27037 20-135): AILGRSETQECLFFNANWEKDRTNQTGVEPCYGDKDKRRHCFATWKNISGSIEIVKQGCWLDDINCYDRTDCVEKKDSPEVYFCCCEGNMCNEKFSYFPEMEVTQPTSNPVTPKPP

B1: recombinant mouse GDF3 (ligand)
chain: AAISVPKGFCRNFCHRHQLFINFQDLGWHKWVIAPKGFMANYCHGECPFSMTTYLNSSNYAFMQALMHMADPKVPKAVCVPTKLSPISMLYQDSDKNVILRHYEDMVVDECGCG
With B1, the binding result in assay [1] and in assay [2] was “binds” in each case.

B2: recombinant human GDF3 (ligand)
chain: AAIPVPKLSCKNLCHRHQLFINFRDLGWHKWIIAPKGFMANYCHGECPFSLTISLNSSNYAFMQALMHAVDPEIPQAVCIPTKLSPISMLYQDNNDNVILRHYEDMVVDECGCG
Turning to B2, the binding result in assay [3] and in assay [4] was “binds” each time.
